# Positions count from the first letter of the chain named. Names may count otherwise.
# T1: human matriptase-2 ECD protein his tag (human, UniProt Q8IU80 78-811)
# T1 construct: also called human MTP-2 ECD; huMTP-2
# T1 sequence: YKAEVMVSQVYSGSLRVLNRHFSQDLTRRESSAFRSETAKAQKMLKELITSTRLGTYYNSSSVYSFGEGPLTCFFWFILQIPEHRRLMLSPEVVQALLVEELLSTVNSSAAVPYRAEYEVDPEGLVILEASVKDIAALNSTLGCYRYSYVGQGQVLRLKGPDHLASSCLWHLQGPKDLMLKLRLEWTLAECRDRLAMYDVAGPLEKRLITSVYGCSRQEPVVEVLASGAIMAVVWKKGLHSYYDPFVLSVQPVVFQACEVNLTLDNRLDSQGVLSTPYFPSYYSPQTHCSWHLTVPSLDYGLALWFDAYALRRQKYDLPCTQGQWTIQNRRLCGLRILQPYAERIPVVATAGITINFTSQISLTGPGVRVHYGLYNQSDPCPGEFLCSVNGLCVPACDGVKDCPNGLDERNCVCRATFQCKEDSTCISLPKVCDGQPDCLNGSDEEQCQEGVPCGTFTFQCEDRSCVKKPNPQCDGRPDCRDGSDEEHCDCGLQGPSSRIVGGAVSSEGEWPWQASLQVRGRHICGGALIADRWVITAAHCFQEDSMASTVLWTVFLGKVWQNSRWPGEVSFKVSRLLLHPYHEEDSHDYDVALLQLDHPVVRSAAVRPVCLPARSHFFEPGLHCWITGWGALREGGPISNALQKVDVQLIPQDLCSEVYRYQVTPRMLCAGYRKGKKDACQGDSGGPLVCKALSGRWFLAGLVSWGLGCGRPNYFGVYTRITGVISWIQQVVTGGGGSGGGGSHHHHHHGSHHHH
# T2: mouse matriptase-2 ECD protein his tag (mouse, UniProt Q9DBI0 80-811)
# T2 construct: aa 80-811 of Q9DBI0 with C-terminal linker and His tag; also called mouse MTP-2 ECD; moMTP-2
# T2 sequence: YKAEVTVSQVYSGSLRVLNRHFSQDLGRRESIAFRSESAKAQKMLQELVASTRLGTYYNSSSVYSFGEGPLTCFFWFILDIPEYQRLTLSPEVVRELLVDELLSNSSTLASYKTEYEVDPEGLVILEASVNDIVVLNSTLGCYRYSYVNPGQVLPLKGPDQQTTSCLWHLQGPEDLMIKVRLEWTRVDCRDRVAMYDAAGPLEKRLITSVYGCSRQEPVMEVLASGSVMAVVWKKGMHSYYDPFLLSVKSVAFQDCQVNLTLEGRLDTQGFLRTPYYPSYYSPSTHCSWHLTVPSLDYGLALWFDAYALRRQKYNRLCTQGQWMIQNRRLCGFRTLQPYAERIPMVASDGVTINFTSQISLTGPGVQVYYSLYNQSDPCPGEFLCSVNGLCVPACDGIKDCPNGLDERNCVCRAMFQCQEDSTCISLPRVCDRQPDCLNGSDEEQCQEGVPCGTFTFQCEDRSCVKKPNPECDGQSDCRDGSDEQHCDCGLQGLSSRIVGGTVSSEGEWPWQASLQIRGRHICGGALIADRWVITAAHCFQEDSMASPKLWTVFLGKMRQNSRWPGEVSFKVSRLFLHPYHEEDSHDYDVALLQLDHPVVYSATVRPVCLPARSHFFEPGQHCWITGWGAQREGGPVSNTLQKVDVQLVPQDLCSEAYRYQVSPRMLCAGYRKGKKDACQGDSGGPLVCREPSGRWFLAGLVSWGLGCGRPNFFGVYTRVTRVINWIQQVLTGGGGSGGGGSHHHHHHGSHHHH
# T3: cyno matriptase-2 ECD protein his tag (cynomolgus, UniProt Q8IU80 84-811 (human entry))
# T3 construct: aa 73-800 of A0A2K5VAP0 with C-terminal linker and His tag; also called cynomolgus MTP-2 ECD
# T3 chain: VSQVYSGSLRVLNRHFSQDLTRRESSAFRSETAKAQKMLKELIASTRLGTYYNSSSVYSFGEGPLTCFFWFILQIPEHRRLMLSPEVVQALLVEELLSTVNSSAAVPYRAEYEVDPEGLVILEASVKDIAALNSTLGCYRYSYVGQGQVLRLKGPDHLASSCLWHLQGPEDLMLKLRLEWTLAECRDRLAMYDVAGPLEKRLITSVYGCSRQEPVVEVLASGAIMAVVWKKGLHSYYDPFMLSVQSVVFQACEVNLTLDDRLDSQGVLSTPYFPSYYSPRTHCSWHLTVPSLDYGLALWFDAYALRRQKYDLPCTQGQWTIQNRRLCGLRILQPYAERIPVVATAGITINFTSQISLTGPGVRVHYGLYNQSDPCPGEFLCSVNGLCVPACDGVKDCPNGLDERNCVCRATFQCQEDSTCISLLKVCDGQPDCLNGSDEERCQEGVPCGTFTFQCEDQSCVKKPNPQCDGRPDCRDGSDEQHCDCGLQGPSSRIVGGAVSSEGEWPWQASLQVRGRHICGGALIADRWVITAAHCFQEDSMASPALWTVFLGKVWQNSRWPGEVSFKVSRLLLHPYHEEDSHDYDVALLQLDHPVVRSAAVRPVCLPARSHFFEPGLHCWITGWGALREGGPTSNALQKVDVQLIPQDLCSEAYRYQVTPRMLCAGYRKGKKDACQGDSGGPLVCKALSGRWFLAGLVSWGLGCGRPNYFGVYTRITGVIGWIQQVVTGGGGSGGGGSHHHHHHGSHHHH
# B1: NORI-011 (antibody, human IgG4 S228P, lambda)
# heavy: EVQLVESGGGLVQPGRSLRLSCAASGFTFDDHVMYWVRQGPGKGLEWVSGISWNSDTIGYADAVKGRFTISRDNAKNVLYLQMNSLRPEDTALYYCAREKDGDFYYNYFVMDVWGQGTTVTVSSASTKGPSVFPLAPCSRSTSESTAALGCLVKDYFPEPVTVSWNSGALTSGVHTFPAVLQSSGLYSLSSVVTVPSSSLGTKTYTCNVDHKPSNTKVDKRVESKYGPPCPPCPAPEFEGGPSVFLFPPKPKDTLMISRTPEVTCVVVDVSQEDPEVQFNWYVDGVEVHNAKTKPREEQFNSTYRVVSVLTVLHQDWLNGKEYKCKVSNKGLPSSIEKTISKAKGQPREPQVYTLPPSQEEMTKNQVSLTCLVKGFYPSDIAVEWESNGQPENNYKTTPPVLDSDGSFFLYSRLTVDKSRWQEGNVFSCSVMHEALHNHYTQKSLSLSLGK
# light: QSALTQPPSASGSPGQSVTISCTGTSSDVGFYNFVSWYQQHPDKAPKVMIYEVSKRPSGVPDRFSGSKSGNTASLTVSGLQAEDEADYYCSSYAGSNKVVFGGGTKLTVLGQPKAAPSVTLFPPSSEELQANKATLVCLISDFYPGAVTVAWKADSSPVKAGVETTTPSKQSNNKYAASSYLSLTPEQWKSHRSYSCQVTHEGSTVEKTVAPTECS
# notes: human IgG4PE, lambda; NORI-010 with a P124S mutation in the VH domain
# B2: NORI-006 (antibody, human IgG4 S228P, kappa, V domains shown)
# VH: EVQLVESGGGLIKPGRSLRLSCTGSGFTFGDFGLSWFRQAPGKGLEWISFIRSKPYGGTTDYAASVKGRFTISRDDSKNVAYLQMNSLKTEDTAVYYCARNEILTGYYIFDYWGQGTLVTVSS
# VL: DIQMTQSPSSLSASLGDRVTITCQASQDINNYLNWYQVQPGKAPKLLIFDASILETGVPSRFSGSGSGTDFSFTISSLQPEDIATYYCQQYDNLPLTFGGGTKVDFKR
# notes: human IgG4PE, kappa
# B3: NORI-003 (antibody, human IgG4 S228P, kappa, V domains shown)
# VH: EVQLVESGGGLVKPGRSLRLSCTGSGFTFGDFGMSWFRQAPGKGLEWVGFIRSKPYGGTTDYAPSVRGRFSISRDDSKGIVYLQMNSLRTEDTAVYYCSRNEILTGYYIFDYWGQGTLVTVSS
# VL: B2 VL with Q27H, N30T, N34I, V38Q, Q39K, K45R, S72T, I83F, D92Y, F106I
# notes: human IgG4PE, kappa; NORI-002 with the free cysteine of the VH domain mutated (printed as 'C49C')
# B4: NORI-008 (antibody, human IgG4 S228P, kappa, V domains shown)
# VH: QVQLQESGPGLVKPSETLSLTCSVSGGSVSSGRYYWTWIRQPPGKGLEWIGYISNSGNTNYNPSLKSRVTISLDTSKKQFSLSLSAVTAADTAVYYCARGFIYDYWFDPWGQGSLVTVSS
# VL: DSQMTQSPSSLSASVGDRVTITCQASQDIDNYLNWYQQRPGKAPKLLIYDASKLETGVPSRFSGSGSGTDFTFTISSLQPEDFATYYCQQYGNLPITFGQGTRLDIKR
# notes: human IgG4PE, kappa, in the in vitro assays; a mouse IgG1 format was used in one in vivo study only; also called NORI-008 hulgG4PE; NORI-008 IgG
# Target: T1, human matriptase-2 ECD protein his tag
# Assay: SPR, his-tagged MTP-2 ECD protein (Table W)
# Description: (§1) Off-rate screening was performed by surface plasmon resonance (SPR), using a Biacore 8K system (GE Healthcare). Anti-human Fc mix (˜1000 RU) were immobilised in both active and reference channels in HBS-P+ buffer (GE BR100671) pH 7.4. Anti-MTP-2 hulgG4PE antibodies were then captured for 60 sec at 10 μl/min at 1 μg/ml concentration (approximatively 35 and 50 RU were captured) only on the active channel. MTP-2 ECD protein analytes were then injected (at 100, 25, 6.25, 1.56 and 0 nM concentrations) for 120 sec (association time) at 30 μl/min and dissociation monitored for 600 sec. Multiple cycle kinetics mode was used with all 8 channels being used. Reference and background were subtracted from the sensorgrams for each antibody and data was fitted using a 1:1 interaction model in the Biacore evaluation software. Rmax, ka, kd globally fitted, RI=0.
# (§2) NORI-011, NORI-008, NORI-003 and NORI-006 were all found to have cross-reactive binding to human, mouse, cyno and rat MTP-2 ECD proteins. […] The true KD value for NORI-008 could not be measured accurately for human or mouse MTP-2 due to a very slow off-rate.
row,Binder,Kd [nM]
1,B1,5.61
2,B2,2.93
3,B3,5.24

# Target: T2, mouse matriptase-2 ECD protein his tag
# Assay: SPR, his-tagged MTP-2 ECD protein (Table W)
# Description: as §1, §2
row,Binder,Kd [nM]
1,B1,9
2,B2,27
3,B3,28.9

# Target: T3, cyno matriptase-2 ECD protein his tag
# Assay: SPR, his-tagged MTP-2 ECD protein (Table W)
# Description: as §1, §2
row,Binder,Kd [nM]
1,B1,2.17
2,B2,0.824
3,B3,1.76
4,B4,0.0104
